According to patent US20110086767A1, “MUTANTS OF GLYCOSIDE HYDROLASES AND USES THEREOF FOR SYNTHESIZING COMPLEX OLIGOSACCHARIDES AND DISACCHARIDE INTERMEDIATES” (Institut Pasteur, priority 2008, published 2011):
Changes are numbered by the printed parent chain. Numbers in names are those of the source.

B1: F290V: single mutant F290V of N. polysaccharea amylosucrase (protein)
chain: SPNSQYLKTRILDIYTPEQRAGIEKSEDWRQFSRRMDTHFPKLMNELDSVYGNNEALLPMLEMLLAQAWQSYSQRNSSLKDIDIARENNPDWILSNKQVGGVCYVDLFAGDLKGLKDKIPYFQELGLTYLHLMPLFKCPEGKSDGGYAVSSYRDVNPALGTIGDLREVIAALHEAGISAVVDFIFNHTSNEHEWAQRCAAGDPLFDNFYYIFPDRRMPDQYDRTLREIFPDQHPGGFSQLEDGRWVWTTFNSFQWDLNYSNPWVFRAMAGEMLFLANLGVDILRMDAVAVIWKQMGTSCENLPQAHALIRAFNAVMRIAAPAVFFKSEAIVHPDQVVQYIGQDECQIGYNPLQMALLWNTLATREVNLLHQALTYRHNLPEHTAWVNYVRSHDDIGWTFADEDAAYLGISGYDHRQFLNRFFVNRFDGSFARGVPFQYNPSTGDCRVSGTAAALVGLAQDDPHAVDRIKLLYSIALSTGGLPLIYLGDEVGTLNDDDWSQDSNKSDDSRWAHRPRYNEALYAQRNDPSTAAGQIYQDLRHMIAVRQSNPRFDGGRLVTFNTNNKHIIGYIRNNALLAFGNFSEYPQTVTAHTLQAMPFKAHDLIGGKTVSLNQDLTLQPYQVMWLEIA
B2: I228V-F229M: double mutant I228V, F229M of N. polysaccharea amylosucrase (protein)
chain: B1 chain with I228V, F229M, V290F
B3: I228V-F229L: double mutant I228V, F229L of N. polysaccharea amylosucrase (protein)
chain: B1 chain with I228V, F229L, V290F
B4: I228T-F290H: double mutant I228T, F290H of N. polysaccharea amylosucrase (protein)
chain: B1 chain with I228T, V290H
B5: I228V-F290H: double mutant I228V, F290H of N. polysaccharea amylosucrase (protein)
chain: B1 chain with I228V, V290H
B6: I228K-F290L: double mutant I228K, F290L of N. polysaccharea amylosucrase (protein)
chain: B1 chain with I228K, V290L
B7: I228K-F290W: double mutant I228K, F290W of N. polysaccharea amylosucrase (protein)
chain: B1 chain with I228K, V290W
B8: F229L: single mutant F229L of N. polysaccharea amylosucrase (protein)
chain: B1 chain with F229L, V290F
B9: F229V: single mutant F229V of N. polysaccharea amylosucrase (protein)
chain: B1 chain with F229V, V290F
B10: F229M: single mutant F229M of N. polysaccharea amylosucrase (protein)
chain: B1 chain with F229M, V290F
B11: F290H: single mutant F290H of N. polysaccharea amylosucrase (protein)
chain: B1 chain with V290H
B12: I228A-F290H: double mutant I228A, F290H of N. polysaccharea amylosucrase (protein)
chain: B1 chain with I228A, V290H
B13: I228V-F290K: double mutant I228V, F290K of N. polysaccharea amylosucrase (protein)
chain: B1 chain with I228V, V290K
B14: I228L-F229L: double mutant I228L, F229L of N. polysaccharea amylosucrase (protein)
chain: B1 chain with I228L, F229L, V290F
B15: A289H-F290S: double mutant A289H, F290S of N. polysaccharea amylosucrase (protein)
chain: B1 chain with A289H, V290S
B16: F290R: single mutant F290R of N. polysaccharea amylosucrase (protein)
chain: B1 chain with V290R
B17: F290G: single mutant F290G of N. polysaccharea amylosucrase (protein)
chain: B1 chain with V290G
B18: A289T-F290H: double mutant A289T, F290H of N. polysaccharea amylosucrase (protein)
chain: B1 chain with A289T, V290H
B19: I228M-F229M: double mutant I228M, F229M of N. polysaccharea amylosucrase (protein)
chain: B1 chain with I228M, F229M, V290F
B20: I228C-F229L: double mutant I228C, F229L of N. polysaccharea amylosucrase (protein)
chain: B1 chain with I228C, F229L, V290F
B21: I228T-F290K: double mutant I228T, F290K of N. polysaccharea amylosucrase (protein)
chain: B1 chain with I228T, V290K
B22: I228V-F290V: double mutant I228V, F290V of N. polysaccharea amylosucrase (protein)
chain: B1 chain with I228V
B23: F290L: single mutant F290L of N. polysaccharea amylosucrase (protein)
chain: B1 chain with V290L

assay: HPLC screening of double-mutant libraries for variants able to glucosylate D-GlcpNAc; type: biochemical; settings: α-D-Glcp-(1→4)-α-D-GlcpNAc (ED) from sucrose and D-GlcpNAc, microplate format
Procedure: The protocol was established to enable the rapid identification of clones for which D-GlcpNAc glucosylation was improved. To obtain higher amounts of enzymes and facilitate detection of glucosylated compounds upon HPLC screening, mutants were produced in 96-DeepWell Format plates. Storage microplates containing monomutants were thawed and replicated to inoculate a starter culture in 96-well microplates containing, in each well, 150 μL LB medium supplemented with ampicillin (100 μg/mL). After growth for 24 h at 30° C. under agitation (200 rpm), plates were duplicated into 96-Deep Well plates containing, in each well, 1.1 mL LB medium supplemented with ampicillin (100 μg/mL) and IPTG (1 mM) to induce GST-AS expression. Cultures were then grown for 24 h at 30° C. under agitation (200 rpm). Plates were centrifuged (20 min, 3000 g, 4° C.) and the supernatant was removed. The cell pellet was resuspended in 200 μL of lysozyme (0.5 mg/mL), followed by freezing at −80° C. for 8 to 12 h. After thawing at room temperature, 100 μL of sucrose and 100 μL of acceptor (each at a final concentration of 73 mM) were added to each well. Enzymatic reaction was incubated at 30° C. during 24 h under agitation. The DeepWell plates were then centrifuged (20 min, 3000 g, 4° C.) and 300 μL of the supernatant was transferred to a filter micro-plate (PVDF 0.2 μm) to be clarified. Supernatant filtration was carried out by centrifugation of the filter micro-plate (5 min, 2000 g, 4° C.) into a novel microplate for screening.
The method for the expression of the mutant libraries is described in Example 1-1.
Acceptor reaction products were analyzed by HPLC analysis using a C18-AQ column (Bischoff C18, 125×4 mm, 3 μm) kept at room temperature and eluted with 0.6 mL/min of ultra-pure water to detect α-D-Glcp-(1→4)-α-D-GlcpNAc formation (analysis time: 7 min). To evaluate the efficiency of the glucosylation reaction, it was carried out complementary HPLC analyses with a Biorad HPX-87K Carbohydrate Analysis column (maintained at 65° C., and eluted at a flow rate of 0.6 mL/min with ultra-pure water). By this way, it was possible to measure sucrose consumption by RI detection and concomitant α-D-Glcp-(1-4)-α-D-GlcpNAc formation by UV220 nm and determine mutant ability to synthesize the desired disaccharide α-D-Glcp-(1→4)-α-D-GlcpNAc (i.e., % Glucosyl units transferred onto acceptor derivatives=[Glucosyl units transferred onto acceptor derivatives]/[Glucosyl units transferred from initial sucrose]×100)
All clones producing sucrose-utilizing variants were then picked and cultured in 96-well microplates. Following cell lysis, the acceptor reaction in the presence of D-GlcpNAc was then carried out in microplate format. HLPC analysis time for each clone was reduced to 7 min for detection of α-D-Glcp-(1→4)-α-D-GlcpNAc. When disaccharide formation was detected, complementary analyses were performed to determine sucrose consumption and disaccharide formation with more accuracy in order to calculate the glucosylation yield.

Molecule | Glusosylation Yield to synthesize ED [%]
B1 | 100
B2 | 29
B3 | 56
B4 | 56
B5 | 61
B6 | 47
B7 | 50
B8 | 49
B9 | 88
B10 | 79
B11 | 46
B12 | 88
B13 | 89
B14 | 35
B15 | 40
B16 | 100
B17 | 53
B18 | 40
B19 | 28
B20 | 78
B21 | 72

same assay, conditions: α-D-Glcp-(1→4)-α-D-GlcpNAc (ED) from sucrose and D-GlcpNAc, microplate format, listed as DM4_P1_G7

Molecule | Glusosylation Yield to synthesize ED [%]
B22 | 90

same assay, conditions: α-D-Glcp-(1→4)-α-D-GlcpNAc (ED) from sucrose and D-GlcpNAc, microplate format, listed as DM4_P2_A2

Molecule | Glusosylation Yield to synthesize ED [%]
B23 | 55

same assay, conditions: α-D-Glcp-(1→4)-α-D-GlcpNAc (ED) from sucrose and D-GlcpNAc, microplate format, listed as DM4_P2_B10

Molecule | Glusosylation Yield to synthesize ED [%]
B22 | 47

same assay, conditions: α-D-Glcp-(1→4)-α-D-GlcpNAc (ED) from sucrose and D-GlcpNAc, microplate format, listed as DM4_P2_G9

Molecule | Glusosylation Yield to synthesize ED [%]
B23 | 20
